Measurements published in patent US20250197490A1 (HBM ALPHA THERAPEUTICS, published 2025).

T1: biotinylated CRH (human and mouse, UniProt P01143 145-185 (rat entry), not fully specified; biotin; which end is not stated for the result (NT-biotin and CT-biotin forms were used))
T1 construct: also called biotin-CRH; CRH (NT biotin)
T1 peptide: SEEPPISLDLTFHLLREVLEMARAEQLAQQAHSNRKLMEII

T2: corticotropin-releasing hormone (CRH) peptide (human and mouse, UniProt P01143 145-185 (rat entry), not fully specified)
T2 peptide: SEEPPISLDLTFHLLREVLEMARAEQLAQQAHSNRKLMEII

B1: PR005657 (antibody, human IgG1, kappa, V domains shown)
VH: EVQLVESGGVLVQPGGSLRLSCAASGFTFSSYWMTWVRQAPGKGLEWVANIKQDASEKYYVDSVKGRFTISRDNAKNSLFLQMNSLRAEDTAVYYCARTLIFDYWGQGTLVTVSS
VL: DIVMTQSPLSLPVTPGEPASISCRSSQSLLHSTGYNSLEWYLQKPGQSPQLLIYLGSNRASGVPDRFSGSGSGTDFTLKISRVEAEDVGIYYCMQTLQTPITFGQGTRLEIKR
B2: PR006148 (antibody, human IgG1, kappa, V domains shown)
VH: EVQLVESGGVLVQPGGSLRLSCAASGFTFSSYWMTWVRQAPGKGLEWVANIKQDASEKYYVDSVKGRFTISRDNAKNSLFLQMNSLRAEDTAVYYCARTLIFDYWGQGTLVTVSS
VL: DIVMTQSPLSLPVTPGEPASISCRSSQSLLHSTGYNPLEWYLQKPGQSPQLLIYLGSNRASGVPDRFSGSGSGTDFTLKISRVEAEDVGIYYCMQTLQTPITFGQGTRLEIKR
B3: PR006144 (antibody, human IgG1, kappa, V domains shown)
VH: EVQLVESGGVLVQPGGSLRLSCAASGFTFSSYWMTWVRQAPGKGLEWVANIKQEGSEKYYVDSVKGRFTISRDNAKNSLFLQMNSLRAEDTAVYYCARTLIFDYWGQGTLVTVSS
VL: DIVMTQSPLSLPVTPGEPASISCRSSQSLLHSTGYNPLEWYLQKPGQSPQLLIYLGSNRASGVPDRFSGSGSGTDFTLKISRVEAEDVGIYYCMQTLQTPITFGQGTRLEIKR
B4: PR005658 (antibody, human IgG1, kappa, V domains shown)
VH: EVQLVESGGVLVQPGGSLRLSCAASGFTFSSYWMTWVRQAPGKGLEWVANIKQDGSEKYYVDSVKGRFTISRDNAKNSLFLQMNSLRAEDTAVYYCARTLIFDYWGQGTLVTVSS
VL: DIVMTQSPLSLPVTPGEPASISCRSSQSLLHSTGYQSLEWYLQKPGQSPQLLIYLGSNRASGVPDRFSGSGSGTDFTLKISRVEAEDVGIYYCMQTLQTPITFGQGTRLEIKR
B5: PR006147 (antibody, human IgG1, kappa, V domains shown)
VH: EVQLVESGGVLVQPGGSLRLSCAASGFTFSSYWMTWVRQAPGKGLEWVANIKQDASEKYYVDSVKGRFTISRDNAKNSLFLQMNSLRAEDTAVYYCARTLIFDYWGQGTLVTVSS
VL: DIVMTQSPLSLPVTPGEPASISCRSSQSLLHSTGYHSLEWYLQKPGQSPQLLIYLGSNRASGVPDRFSGSGSGTDFTLKISRVEAEDVGIYYCMQTLQTPITFGQGTRLEIKR
B6: PR006150 (antibody, human IgG1, kappa, V domains shown)
VH: EVQLVESGGVLVQPGGSLRLSCAASGFTFSSYWMTWVRQAPGKGLEWVANIKQDSSEKYYVDSVKGRFTISRDNAKNSLFLQMNSLRAEDTAVYYCARTLIFDYWGQGTLVTVSS
VL: DIVMTQSPLSLPVTPGEPASISCRSSQSLLHSTGYDSLEWYLQKPGQSPQLLIYLGSNRASGVPDRFSGSGSGTDFTLKISRVEAEDVGIYYCMQTLQTPITFGQGTRLEIKR
B7: PR006152 (antibody, human IgG1, kappa, V domains shown)
VH: EVQLVESGGVLVQPGGSLRLSCAASGFTFSSYWMTWVRQAPGKGLEWVANIKQDSSEKYYVDSVKGRFTISRDNAKNSLFLQMNSLRAEDTAVYYCARTLIFDYWGQGTLVTVSS
VL: DIVMTQSPLSLPVTPGEPASISCRSSQSLLHSTGYNPLEWYLQKPGQSPQLLIYLGSNRASGVPDRFSGSGSGTDFTLKISRVEAEDVGIYYCMQTLQTPITFGQGTRLEIKR
B8: PR006142 (antibody, human IgG1, kappa, V domains shown)
VH: EVQLVESGGVLVQPGGSLRLSCAASGFTFSSYWMTWVRQAPGKGLEWVANIKQEGSEKYYVDSVKGRFTISRDNAKNSLFLQMNSLRAEDTAVYYCARTLIFDYWGQGTLVTVSS
VL: DIVMTQSPLSLPVTPGEPASISCRSSQSLLHSTGYDSLEWYLQKPGQSPQLLIYLGSNRASGVPDRFSGSGSGTDFTLKISRVEAEDVGIYYCMQTLQTPITFGQGTRLEIKR
B9: PR006151 (antibody, human IgG1, kappa, V domains shown)
VH: EVQLVESGGVLVQPGGSLRLSCAASGFTFSSYWMTWVRQAPGKGLEWVANIKQDSSEKYYVDSVKGRFTISRDNAKNSLFLQMNSLRAEDTAVYYCARTLIFDYWGQGTLVTVSS
VL: DIVMTQSPLSLPVTPGEPASISCRSSQSLLHSTGYHSLEWYLQKPGQSPQLLIYLGSNRASGVPDRFSGSGSGTDFTLKISRVEAEDVGIYYCMQTLQTPITFGQGTRLEIKR
B10: PR005662 (antibody, human IgG1, kappa, V domains shown)
VH: EVQLVESGGVLVQPGGSLRLSCAASGFTFSSYWMTWVRQAPGKGLEWVANIKQDASEKYYVDSVKGRFTISRDNAKNSLFLQMNSLRAEDTAVYYCARTLIFDYWGQGTLVTVSS
VL: DIVMTQSPLSLPVTPGEPASISCRSSQSLLHSTGYQSLEWYLQKPGQSPQLLIYLGSNRASGVPDRFSGSGSGTDFTLKISRVEAEDVGIYYCMQTLQTPITFGQGTRLEIKR
B11: PR006146 (antibody, human IgG1, kappa, V domains shown)
VH: EVQLVESGGVLVQPGGSLRLSCAASGFTFSSYWMTWVRQAPGKGLEWVANIKQDASEKYYVDSVKGRFTISRDNAKNSLFLQMNSLRAEDTAVYYCARTLIFDYWGQGTLVTVSS
VL: DIVMTQSPLSLPVTPGEPASISCRSSQSLLHSTGYDSLEWYLQKPGQSPQLLIYLGSNRASGVPDRFSGSGSGTDFTLKISRVEAEDVGIYYCMQTLQTPITFGQGTRLEIKR
B12: PR006149 (antibody, human IgG1, kappa, V domains shown)
VH: EVQLVESGGVLVQPGGSLRLSCAASGFTFSSYWMTWVRQAPGKGLEWVANIKQDASEKYYVDSVKGRFTISRDNAKNSLFLQMNSLRAEDTAVYYCARTLIFDYWGQGTLVTVSS
VL: DIVMTQSPLSLPVTPGEPASISCRSSQSLLHSTGYSSLEWYLQKPGQSPQLLIYLGSNRASGVPDRFSGSGSGTDFTLKISRVEAEDVGIYYCMQTLQTPITFGQGTRLEIKR
B13: PR302052 (antibody, human IgG1, kappa, V domains shown)
VH: EMQLVESGGGLVQPGGSLKLSCAASGFTFSNYWMNWVRQASGKGLEWVAEIRLKSNNYATHYAESVKGRFTISRDDSKSTVYLQMNSLKTEDTAVYYCTVGTLVYWGQGTLVTVSS
VL: EIVLTQSPATLSLSPGERATLSCRASQSVSTSTYNYMHWFQQKPGQAPRLLIKFASNLESGIPARFSGSGSGTDFTLTISSLEPEDTAVYYCQHSWEIPYTFGQGTKLEIKR
B14: PR302041 (antibody, human IgG1, kappa, V domains shown)
VH: EMQLVESGGGLVQPGGSLRLSCAASGFTFSNYWMNWVRQAPGKGLEWVAEIRLKSNNYATHYAESVKGRFTISRDDSKSSVYLQMNSLKTEDTAVYYCTVGTLVYWGQGTLVTVSS
VL: DIQLTQSPSSLSASVGDRVTITCRASQSVSTSTYNYMHWFQQKPGKAPKLLIKFASNLESGVPSRFSGSGSGTDFTLTISSLQPEDTATYYCQHSWEIPYTFGQGTKLEIKR
B15: PR302069 (antibody, human IgG1, kappa, V domains shown)
VH: EMQLVESGGGLVKPGGSLRLSCAASGFTFSNYWMNWVRQAPGKGLEWVAEIRLKSNNYATHYAESVKGRFTISRDDSKSTVYLQMNSLKTEDTAVYYCTVGTLVYWGQGTLVTVSS
VL: DIQLTQSPSSLSASVGDRVTITCRASQSVSTSTYNYMHWFQQKPGKAPKLLIKFASNLESGVPSRFSGSGSGTDFTLTISSLQPEDTATYYCQHSWEIPYTFGQGTKLEIKR
B16: PR302055 (antibody, human IgG1, kappa, V domains shown)
VH: EMQLVESGGGLVQPGGSLKLSCAASGFTFSNYWMNWVRQASGKGLEWVAEIRLKSNNYATHYAESVKGRFTISRDDSKSTVYLQMNSLKTEDTAVYYCTVGTLVYWGQGTLVTVSS
VL: DIQLTQSPSSLSASVGDRVTITCRASQSVSTSTYNYMHWFQQKPGKAPKLLIKFASNLESGVPSRFSGSGSGTDFTLTISSLQPEDTATYYCQHSWEIPYTFGQGTKLEIKR
B17: PR302066 (antibody, human IgG1, kappa, V domains shown)
VH: EMQLVESGGGLVKPGGSLRLSCAASGFTFSNYWMNWVRQAPGKGLEWVAEIRLKSNNYATHYAESVKGRFTISRDDSKSTVYLQMNSLKTEDTAVYYCTVGTLVYWGQGTLVTVSS
VL: EIVLTQSPATLSLSPGERATLSCRASQSVSTSTYNYMHWFQQKPGQAPRLLIKFASNLESGIPARFSGSGSGTDFTLTISSLEPEDTAVYYCQHSWEIPYTFGQGTKLEIKR
B18: PR302034 (antibody, human IgG1, kappa, V domains shown)
VH: EVQLVESGGGLVQPGGSLRLSCAASGFTFSNYWMNWVRQAPGKGLEWVGEIRLKSNNYATHYAESVKGRFTISRDDSKNSLYLQMNSLKTEDTAVYYCTVGTLVYWGQGTLVTVSS
VL: DIQLTQSPSSLSASVGDRVTITCRASQSVSTSTYNYMHWFQQKPGKAPKLLIKFASNLESGVPSRFSGSGSGTDFTLTISSLQPEDTATYYCQHSWEIPYTFGQGTKLEIKR
B19: PR302048 (antibody, human IgG1, kappa, V domains shown)
VH: EVQLVESGGGLVQPGGSLKLSCAASGFTFSNYWMNWVRQASGKGLEWVGEIRLKSNNYATHYAESVKGRFTISRDDSKNTAYLQMNSLKTEDTAVYYCTRGTLVYWGQGTLVTVSS
VL: DIQLTQSPSSLSASVGDRVTITCRASQSVSTSTYNYMHWFQQKPGKAPKLLIKFASNLESGVPSRFSGSGSGTDFTLTISSLQPEDTATYYCQHSWEIPYTFGQGTKLEIKR

Assays:
[1] = target: T1, biotinylated CRH; assay: ELISA, CRH (NT biotin)
Protocol: Streptavidin (Thermo, Cat: 21125) was diluted in PBS to a concentration of 2 μg/ml. 100 μl of diluted streptavidin was added per well to ELISA microplates, and the plates were incubated overnight at 4° C. […] Subsequently, plates were washed and incubated with HRP-conjugated goat anti-human IgG (H+L) antibody (Jackson, Cat: 109-035-088) at 37° C. for 1 hour. 100 μL of 3,3′,5,5′-tetramethylbenzidine (TMB) substrate (Biopanda, Cat: TMB-S-003) was added, and the plates were incubated at room temperature for 15 minutes. 100 μL of ELISA stopping solution (Solarbio, Cat #: C1058) was added to terminate the reaction, and the optical density at 450 nm (OD450 nm) was determined by an ELISA plate reader (Molecular Devices, Spectra max 384 plus).
These potential PTMs were mutated individually either in HCDR2 alone, in LCDR1 alone, or in various combinations of mutations, as detailed in Table 3. […] Most ΔPTM variants retained functional activities.

[2] = target: T2, corticotropin-releasing hormone (CRH) …; assay: cell-based or functional assay

| Binder | binding result [1] | unlabelled nM value (Table 5 matrix; likely hCRHR1-Luc IC50 as in Tables 6-8) [2] [nM] | further results |
| --- | --- | --- | --- |
| B1 |  |  | EC50 (read off the curve) [1]: ~0.03 nM |
| B2 | binds |  |  |
| B3 | binds |  |  |
| B4 |  |  | EC50 (read off the curve) [1]: ~0.03 nM |
| B5 | binds |  |  |
| B6 | binds |  |  |
| B7 | binds |  |  |
| B8 | binds |  |  |
| B9 | binds |  |  |
| B10 |  |  | EC50 (read off the curve) [1]: ~0.03 nM |
| B11 | binds |  |  |
| B12 | binds |  |  |
| B13 |  | 2.05 |  |
| B14 |  | 2.54 |  |
| B15 |  | 1.54 |  |
| B16 |  | 1.35 |  |
| B17 |  | 2.49 |  |
| B18 |  | 6.87 |  |
| B19 |  | 6.66 |  |
